The experiment deals with high molecular weight glycoprotein gp240 on melanoma cells (human) (UniProt Q6UVK1). The experiment can be described thus: cell-based or functional assay.
Chain of UniProt Q6UVK1 (Q6UVK1 30-2322): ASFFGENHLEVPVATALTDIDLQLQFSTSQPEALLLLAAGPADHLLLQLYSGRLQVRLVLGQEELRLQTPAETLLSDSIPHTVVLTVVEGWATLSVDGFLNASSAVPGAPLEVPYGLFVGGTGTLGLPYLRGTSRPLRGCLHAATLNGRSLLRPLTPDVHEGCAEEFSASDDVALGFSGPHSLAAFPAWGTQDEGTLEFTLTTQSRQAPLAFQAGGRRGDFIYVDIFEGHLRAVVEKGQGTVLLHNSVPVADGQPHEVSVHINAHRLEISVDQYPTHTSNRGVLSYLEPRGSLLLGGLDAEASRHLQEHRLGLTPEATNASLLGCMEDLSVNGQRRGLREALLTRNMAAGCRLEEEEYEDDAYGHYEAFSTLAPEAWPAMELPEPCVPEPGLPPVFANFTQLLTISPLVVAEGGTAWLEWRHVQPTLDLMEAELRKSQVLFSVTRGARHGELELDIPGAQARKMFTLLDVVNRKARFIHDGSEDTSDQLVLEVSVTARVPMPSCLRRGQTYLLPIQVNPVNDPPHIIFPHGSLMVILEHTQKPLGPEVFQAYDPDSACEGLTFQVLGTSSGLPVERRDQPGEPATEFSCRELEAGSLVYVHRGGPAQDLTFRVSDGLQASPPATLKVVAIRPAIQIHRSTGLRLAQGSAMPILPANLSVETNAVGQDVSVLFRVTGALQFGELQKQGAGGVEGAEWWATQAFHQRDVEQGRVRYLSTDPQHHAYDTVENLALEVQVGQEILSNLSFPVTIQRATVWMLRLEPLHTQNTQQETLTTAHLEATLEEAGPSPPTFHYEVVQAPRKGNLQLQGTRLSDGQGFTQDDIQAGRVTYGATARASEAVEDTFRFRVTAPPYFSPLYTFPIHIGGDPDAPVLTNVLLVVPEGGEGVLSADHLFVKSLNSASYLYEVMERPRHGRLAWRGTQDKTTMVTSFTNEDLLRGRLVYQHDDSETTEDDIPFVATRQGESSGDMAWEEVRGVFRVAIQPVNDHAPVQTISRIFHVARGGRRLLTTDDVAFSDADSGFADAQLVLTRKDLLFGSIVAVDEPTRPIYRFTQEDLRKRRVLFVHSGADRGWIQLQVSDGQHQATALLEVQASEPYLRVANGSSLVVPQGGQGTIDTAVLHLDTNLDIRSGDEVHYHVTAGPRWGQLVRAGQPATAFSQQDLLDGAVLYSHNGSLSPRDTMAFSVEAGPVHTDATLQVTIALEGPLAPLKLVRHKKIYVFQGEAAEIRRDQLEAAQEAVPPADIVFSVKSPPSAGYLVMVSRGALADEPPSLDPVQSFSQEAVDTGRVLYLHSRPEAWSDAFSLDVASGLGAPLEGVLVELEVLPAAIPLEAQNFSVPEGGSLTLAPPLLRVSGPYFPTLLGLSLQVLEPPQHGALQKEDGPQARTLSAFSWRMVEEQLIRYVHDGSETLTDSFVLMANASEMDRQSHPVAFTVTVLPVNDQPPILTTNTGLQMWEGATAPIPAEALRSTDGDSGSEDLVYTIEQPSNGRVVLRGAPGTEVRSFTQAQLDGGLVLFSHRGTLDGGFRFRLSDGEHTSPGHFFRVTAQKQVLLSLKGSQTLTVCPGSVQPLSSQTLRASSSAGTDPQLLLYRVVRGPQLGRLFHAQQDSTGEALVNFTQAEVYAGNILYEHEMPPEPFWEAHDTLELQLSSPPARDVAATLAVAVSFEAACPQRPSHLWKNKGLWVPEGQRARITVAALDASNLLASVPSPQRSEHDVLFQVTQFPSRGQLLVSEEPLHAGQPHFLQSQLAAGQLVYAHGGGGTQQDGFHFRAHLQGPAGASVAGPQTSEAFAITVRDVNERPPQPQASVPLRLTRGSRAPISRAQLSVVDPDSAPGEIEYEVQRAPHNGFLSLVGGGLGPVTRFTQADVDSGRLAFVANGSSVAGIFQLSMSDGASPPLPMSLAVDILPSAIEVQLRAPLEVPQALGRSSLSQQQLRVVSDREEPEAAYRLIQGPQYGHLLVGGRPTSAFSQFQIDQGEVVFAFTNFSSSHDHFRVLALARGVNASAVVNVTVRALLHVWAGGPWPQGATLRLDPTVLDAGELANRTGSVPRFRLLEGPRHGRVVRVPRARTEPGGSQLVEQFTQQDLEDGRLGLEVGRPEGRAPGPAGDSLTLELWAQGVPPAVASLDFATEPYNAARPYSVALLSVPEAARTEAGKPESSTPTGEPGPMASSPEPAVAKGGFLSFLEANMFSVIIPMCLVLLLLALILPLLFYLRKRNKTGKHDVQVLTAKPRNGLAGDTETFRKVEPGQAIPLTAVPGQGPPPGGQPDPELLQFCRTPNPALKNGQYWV

In turn, IgG ZME-018-gelonin chemical conjugate gave an IC50, 72 h in vitro cytotoxicity on antigen-positive A375 human melanoma cells of 8 nM.
For scfvMEL/rGel fusion construct the value was 8 nM.

Source of the values: US20030176331A1.
